Laboratory results reported in patent US20250361274A1, “PEPTIDE AND PEPTIDE-CONTAINING AGENT” (PEPTIDREAM INC., priority 2022, published 2025).
Numbered stars: 1 amine (or outer) side, 2 acyl side, 3 side chain; on linkers, the order of the positions; unused ones are H or OH. Bridge positions count the residues as written; N and C are the ends. Square brackets hold non-standard residues; d marks the D form. Ends that are not written are not given here. KCOpipzaa = N6-(4-(carboxymethyl)piperazine-1-carbonyl)-L-lysine, O=C(NCCCC[C@H](N[*:1])C(=O)[*:2])N1CCN(CC(=O)[*:3])CC1; 3Pal(6-Ph) = N[C@@H](Cc1ccc(-c2ccccc2)nc1)C(=O)O; Phe(4-COOH) = N[C@@H](Cc1ccc(C(=O)O)cc1)C(=O)O; Bip = N[C@@H](Cc1ccc(-c2ccccc2)cc1)C(=O)O; Ala(4-THP) = N[C@@H](CC1CCOCC1)C(=O)O; Hyp = O=C(O)[C@@H]1C[C@@H](O)CN1

T1: BMP4 (Homo sapiens, UniProt P12644)
T1 sequence (P12644 293-408): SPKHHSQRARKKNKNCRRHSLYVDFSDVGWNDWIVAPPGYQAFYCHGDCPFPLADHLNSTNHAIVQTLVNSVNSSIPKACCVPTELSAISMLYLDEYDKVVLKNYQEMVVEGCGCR

T2: BMP4 (UniProt P12644 293-408)
T2 sequence (looked up): T1 sequence (P12644 293-408)

T3: BMP7 (UniProt P18075 293-431)
T3 sequence (looked up): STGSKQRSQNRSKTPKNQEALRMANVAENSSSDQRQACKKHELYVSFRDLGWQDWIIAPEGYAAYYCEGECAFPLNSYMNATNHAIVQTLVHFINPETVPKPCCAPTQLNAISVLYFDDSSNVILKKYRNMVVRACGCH


Experiments:
BMP4 [1] = molecular target: T1, BMP4; assay: Intermolecular interaction by surface plasmon resonance (SPR), immobilized BMP4; format: binding; details: which BMP is not specified
Method: The test of the intermolecular interaction by the surface plasmon resonance (SPR) of each of the peptides synthesized in Examples 2 and 3 against BMP4/BMP7 was performed by the following manner. The test method is specifically shown as follows.
A CM5 sensor chip (Cytiva) was inserted into a BiacoreT200 (Cytiva). Three priming runs were performed using running buffer: HBS-EP+ (Cytiva). The system was then equilibrated at a flow rate of 30 μL/min. Subsequently, 50 μL of 60 mM EDC solution (Cytiva) and 50 μL of 650 mM NHS solution (Cytiva) were mixed and were allowed to react at a flow rate of 10 μL/min for 420 seconds. The resultant was diluted with a 10 mM acetic acid solution (pH 5.0), to prepare 150 μL of 0.2 μM BMP4/BMP7 solution. The solution was allowed to react at a flow rate of 10 μL/min for 420 seconds, and the BMP4/BMP7 was immobilized in a CM5 sensor chip. After immobilization, capping was performed by reacting with 1.0 M ethanolamine aqueous solution (Cytiva) at a flow rate of 10 μL/min for 420 seconds. […]
The kinetics evaluation model was Single Cycle Kinetics, and curve fitting was performed using Biacore T200 Evaluation Software Version 3.0 (Cytiva). The binding of peptides to BMP4/BMP7 was evaluated by performing least-squares curve fitting on the obtained sensorgram to calculate the KD value.

BMP4 [2] = molecular target: T2, BMP4; assay: cell-based or functional assay
BMP7 = molecular target: T3, BMP7; assay: cell-based or functional assay
BMP2 = BMP2 (UniProt P12643 283-396); assay: cell-based or functional assay
Chain of BMP2 (P12643 283-396 limits assumed): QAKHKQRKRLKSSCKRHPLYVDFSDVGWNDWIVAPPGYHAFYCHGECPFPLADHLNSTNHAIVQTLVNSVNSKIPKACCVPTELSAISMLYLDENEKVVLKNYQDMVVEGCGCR

Row | BMP binding activity (in words) (BMP4 [1]) | IC50 (nM), SMAD1 phosphorylation in A549 cells (BMP4 [2]) [nM] | IC50 (nM), SMAD1 phosphorylation in A549 cells (BMP7) [nM] | IC50, SMAD1 phosphorylation, BMP2 0.3 nM (BMP2) [pM] | Molecule
1 | confirmed to have BMP binding activity | – | – | – | E-R-V-F4COO-Atp-D-R-Bph-P-Y-P-Bph-Y-F4COO-F4COO-S-C (ERV[Phe(4-COOH)][Ala(4-THP)]DR[Bip]PYP[Bip]Y[Phe(4-COOH)][Phe(4-COOH)]SC) [SEQ ID NO: 1]
2 | – | 0.073 | 455 | 450 | {CH2CO}-ERV[Phe(4-COOH)]V[KCOpipzaa]R[3Pal(6-Ph)][KCOpipzaa]Y[Hyp][Bip]Y[Phe(4-COOH)][Phe(4-COOH)]SCG-NH2 (thioether N-17 (inferred)) [BMP4 signal transduction inhibition peptide SEQ ID NO: 277 (Example 8)]
